According to article PMC4022514, “The C-Terminal Domain from S. cerevisiae Pat1 Displays Two Conserved Regions Involved in Decapping Factor Recruitment” (PLoS ONE, 2014):

What was measured:
[1] = biological target: T1, Edc3 (two-hybrid fusion to the DNA binding domain) (S. cerevisiae, UniProt P39998 1-551); experiment: two-hybrid; yeast strain BSY2475, isogenic to MAV203 but lacking Edc3 (Δedc3); β-galactosidase activity by Beta-Glo; Pat1 fused to Gal4AD; conditions: partners not purified
T1 construct: Edc3, S. cerevisiae; The bridge between Pat1 and Rps28 in the wild-type host strain is the strain's endogenous Edc3, the same protein without the fusion; source: yeast two-hybrid fusion
T1 sequence (looked up): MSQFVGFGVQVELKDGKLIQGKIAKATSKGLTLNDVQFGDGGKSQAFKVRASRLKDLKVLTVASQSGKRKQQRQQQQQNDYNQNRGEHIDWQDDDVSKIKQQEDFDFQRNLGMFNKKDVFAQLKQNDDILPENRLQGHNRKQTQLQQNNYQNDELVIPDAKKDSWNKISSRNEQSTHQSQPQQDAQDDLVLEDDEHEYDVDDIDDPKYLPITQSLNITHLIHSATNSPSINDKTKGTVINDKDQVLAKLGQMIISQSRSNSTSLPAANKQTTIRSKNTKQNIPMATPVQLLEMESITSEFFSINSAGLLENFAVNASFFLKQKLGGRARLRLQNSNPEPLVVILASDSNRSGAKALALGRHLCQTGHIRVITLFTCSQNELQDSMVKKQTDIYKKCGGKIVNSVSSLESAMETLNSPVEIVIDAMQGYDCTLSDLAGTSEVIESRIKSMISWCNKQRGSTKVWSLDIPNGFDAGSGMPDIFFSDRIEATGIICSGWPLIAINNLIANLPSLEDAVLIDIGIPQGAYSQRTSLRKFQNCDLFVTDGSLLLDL

[2] = biological target: T2, Scd6 (two-hybrid fusion) (S. cerevisiae, UniProt P45978 1-349); experiment: as above; conditions: partners not purified
T2 construct: Scd6, S. cerevisiae; source: yeast two-hybrid fusion
T2 sequence (looked up): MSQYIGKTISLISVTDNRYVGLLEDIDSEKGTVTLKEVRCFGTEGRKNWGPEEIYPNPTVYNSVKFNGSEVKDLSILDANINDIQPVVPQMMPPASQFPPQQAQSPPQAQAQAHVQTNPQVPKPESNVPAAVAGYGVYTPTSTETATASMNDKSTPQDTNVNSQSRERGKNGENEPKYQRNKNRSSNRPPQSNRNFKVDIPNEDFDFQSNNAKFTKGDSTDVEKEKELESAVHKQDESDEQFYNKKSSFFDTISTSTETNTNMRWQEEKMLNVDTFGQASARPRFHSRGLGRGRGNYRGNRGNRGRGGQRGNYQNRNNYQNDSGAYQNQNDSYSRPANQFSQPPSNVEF

fold two-hybrid signal, Δedc3 strain over wild type strain [1]: > 60 fold
fold two-hybrid signal, Δedc3 strain over wild type strain [2]: 3 fold
B1: full-length ScPat1 (two-hybrid fusion to Gal4AD) (natural protein, S. cerevisiae, UniProt P25644 1-796, looked up)
chain: MSFFGLENSGNARDGPLDFEESYKGYGEHELEENDYLNDETFGDNVQVGTDFDFGNPHSSGSSGNAIGGNGVGATARSYVAATAEGISGPRTDGTAAAGPLDLKPMESLWSTAPPPAMAPSPQSTMAPAPAPQQMAPLQPILSMQDLERQQRQMQQQFMNFHAMGHPQGLPQGPPQQQFPMQPASGQPGPSQFAPPPPPPGVNVNMNQMPMGPVQVPVQASPSPIGMSNTPSPGPVVGATKMPLQSGRRSKRDLSPEEQRRLQIRHAKVEKILKYSGLMTPRDKDFITRYQLSQIVTEDPYNEDFYFQVYKIIQRGGITSESNKGLIARAYLEHSGHRLGGRYKRTDIALQRMQSQVEKAVTVAKERPSKLKDQQAAAGNSSQDNKQANTVLGKISSTLNSKNPRRQLQIPRQQPSDPDALKDVTDSLTNVDLASSGSSSTGSSAAAVASKQRRRSSYAFNNGNGATNLNKSGGKKFILELIETVYEEILDLEANLRNGQQTDSTAMWEALHIDDSSYDVNPFISMLSFDKGIKIMPRIFNFLDKQQKLKILQKIFNELSHLQIIILSSYKTTPKPTLTQLKKVDLFQMIILKIIVSFLSNNSNFIEIMGLLLQLIRNNNVSFLTTSKIGLNLITILISRAALIKQDSSRSNILSSPEISTWNEIYDKLFTSLESKIQLIFPPREYNDHIMRLQNDKFMDEAYIWQFLASLALSGKLNHQRIIIDEVRDEIFATINEAETLQKKEKELSVLPQRSQELDTELKSIIYNKEKLYQDLNLFLNVMGLVYRDGEISELK
notes: Pat1, S. cerevisiae, full-length; pBS2374 is named only as the template for the Gal4AD-Pat1ΔC68 plasmid pBS4907; also called wild type ScPat1; full-length Pat1 protein; source: yeast two-hybrid fusion
